The values below come from PMC4234207.

Data set [1] concerns the target T1, GST-FKH-FoxA2 (Rattus norvegicus (rat; cloned from genomic DNA)) (UniProt P32182).
T1 sequence (P32182 145-290, looked up): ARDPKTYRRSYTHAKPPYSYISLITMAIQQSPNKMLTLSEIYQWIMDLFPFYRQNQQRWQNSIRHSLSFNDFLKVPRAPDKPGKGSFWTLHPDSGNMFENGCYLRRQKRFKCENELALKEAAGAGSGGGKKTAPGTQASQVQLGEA
Description: competition EMSA. The following applies: 25 mM HEPES pH 7.6, 150 mM KCl, 0.2 mM EDTA, 0.2 mM EGTA, 10% glycerol, 1 mM DTT, 3 ug protein, 1 ng 32P-TTR probe, 2/5/20 ng competitor, on ice 15 min; 4% …. On the technique in general: A gel shift assay detects complexes by their altered migration in electrophoresis.

The target of data set [2] is T1, GST-FKH-FoxA2 (Rattus norvegicus (rat; cloned from genomic DNA)). Description: EMSA and self-competition. Particulars: reference probe; 25 mM HEPES pH 7.6, 150 mM KCl, 0.2 mM EDTA, 0.2 mM EGTA, 10% glycerol, 1 mM DTT, 3 ug protein, 1 ng 32P-TTR probe, 2/5/20 ng competitor, on ice 15 min; 4% ….

For “CAGTCTCTGCCCCTCTATTGGTCTAGCTCTCCAA (double strand) [non-site chr16:22806861]”, in data set [1], the binding signal (EMSA score (TTR=1)) amounted to 0.06. On the same count and under the same terms, for “CAGTCTCCTCCATTGTGTACACTCCCCCTC (double strand) [FoxA BS chr7:44717527]” the value was 0.49; for “CAGTTGGGCATATTTGCTCAGAACCTGGTA (double strand) [FoxA BS chr1:159362347]”, 0.37. Still for that read-out and setting: as for “CAGTCTGCGGCGCCAGATTTACACAGCGCGAGGA (double strand) [FoxA BS chr7:15773405]”, the figure is 0.25.

As to “CAGTGTTCAGAGCTGTTTACTTGAACGCGA (double strand) [FoxA BS chr6:34792983 b]”, the binding signal (EMSA score (TTR=1)) in data set [1] was determined as 0.53.

Regarding “CAGTCCCTATCTGTGTTTACAGCTGGTTTC (double strand) [non-site chr5:139643316]”, the binding signal (EMSA score (TTR=1)) in data set [1] was found to be 0.18. On to “CAGTACTCATCCTGCTATTGACAGTCGGATATAT (double strand) [FoxA BS chr7:29476412]”, for which the binding signal (EMSA score (TTR=1)) in data set [1] is 0.4. In data set [1], “CAGTTATCTGTACTTTATTTTCAAACGCTATAAT (double strand) [non-site chr8:96902217 b]” showed a binding signal (EMSA score (TTR=1)) of -0.01. In the case of “CAGTCCGGGATTGGCTGTTTGTAATCTGCTCGAC (double strand) [non-site chr17:74394072]”, the binding signal (EMSA score (TTR=1)) in data set [1] amounted to 0. “CAGTTTCAAAGCTTGTTGACGGAGAGAAAT (double strand) [non-site chr17:25500984]” came in with a binding signal (EMSA score (TTR=1)) in data set [1] of 0.2.

For the sequence “CAGTGGTCACCCTTTGGTTTACCTTTTAGGAACA (double strand) [FoxA BS chr8:96902217 a]”, in data set [1], the binding signal (EMSA score (TTR=1)) is 0.52. In turn, “CAGTGTGTTCCTATGTGTACACAGTACTTG (double strand) [FoxA BS chr4:3604382]” gave a binding signal (EMSA score (TTR=1)) in data set [1] of 0.91.

As for “CAGTTCACCTGAGGGTGTGTACACAGTCTCTCAG (double strand) [FoxA BS chr7:100410756]”, the binding signal (EMSA score (TTR=1)) in data set [1] came out at 0.56. The same measure, in the same setting: for “CAGTTGCTGGCCTAATGTGGACACAGGGGGTTCC (double strand) [FoxA BS chr3:83135377]” the value was 0.64; for “CAGTTGCCTTTCTGTTTGTTGTTTTGGAGG (double strand) [non-site chr5:30822343]”, 0.21; for “CAGTGAGGCGGGGTGTTGACTCTTACGCCA (double strand) [FoxA BS chr8:112454327]”, 0.33.

“CAGTTTGGGTCAATATTTATTCTTTCATTT (double strand) [FoxA BS chr19:38189585]” gave a binding signal (EMSA score (TTR=1)) in data set [1] of 0.48. For “CAGTGGGACCTGTCTTGTTGACCCATCACGTCAC (double strand) [FoxA BS chr17:32151628]”, the binding signal (EMSA score (TTR=1)) in data set [1] came to 0.47. In the case of “CAGTCCAGACTCGCTTGTTGACAGAGCTCAGGGC (double strand) [FoxA BS chr12:77880754 a]”, in data set [1], the binding signal (EMSA score (TTR=1)) came out at 0.38. “CAGTCTCCCGGCCGGGGTTGACTCTCTCTGAGCT (double strand) [non-site chr8:87127281]”: the binding signal (EMSA score (TTR=1)) in data set [1] came to 0.11. Same read-out and setting: as for “CAGTATTTATTTGTATGTATTTTGAGACAG (double strand) [FoxA BS chr3:116606401]”, the figure is 0.38. “CAGTCATATAGGCTCTGTTTGAACATTAATTAAC (double strand) [FoxA BS chr15:82621996 b]” gave a binding signal (EMSA score (TTR=1)) in data set [1] of 0.31. Consider “CAGTGCTAGATCCAGTTTTTACACAGAAAGTTTC (double strand) [non-site chr8:13025407 b]”, for which the binding signal (EMSA score (TTR=1)) in data set [1] is -0.06.

Consider “CAGTCCTGGCTTTCCTGCTTACCCAACAACCGCT (double strand) [non-site chr3:94456673 b]”, for which the binding signal (EMSA score (TTR=1)) in data set [1] came out at 0.07. “CAGTCGAGTTGACTAAGTCAATAATCAGAATCAGTCG (double strand) [TTR]” displayed a binding signal (EMSA score (TTR=1)) in data set [2] of 1.

The sequence “CAGTCTGAGAAACCTTGTTGATCTCAGGCAACCC (double strand) [non-site chr8:13025407 a]” gave a binding signal (EMSA score (TTR=1)) in data set [1] of 0.07.

In data set [1], “CAGTGGCATCCGACTGATTTACTGAGCTGGTTCC (double strand) [non-site chr7:140707466 b]” registered a binding signal (EMSA score (TTR=1)) of 0.

The sequence “CAGTCCAGGGGACCTGTTTACCTTACATAG (double strand) [FoxA BS chr17:45901267]” displayed a binding signal (EMSA score (TTR=1)) in data set [1] of 0.7. On the same count and under the same terms, as for “CAGTAAACTCTGCTGTGTGTACAGATAACATTAC (double strand) [non-site chr7:119551431]”, the figure is 0.22; as for “CAGTAGAGGTCTTCCTCTTTGCCCATGTTGTGGG (double strand) [non-site chr7:26648074]”, -0.16. The sequence “CAGTGCGTGCATTGGTGTTCGCTCAGAGCGGGAC (double strand) [non-site chr6:5446118]” had a binding signal (EMSA score (TTR=1)) in data set [1] of 0. “CAGTTGGAGTAGTTATTTACCTTAGCAGCC (double strand) [FoxA BS chr16:13816438]” returned a binding signal (EMSA score (TTR=1)) in data set [1] of 0.81.

The sequence “CAGTGGACCTTATTTACTTTCCTTAGCAAG (double strand) [FoxA BS chr12:85340663 a]” showed a binding signal (EMSA score (TTR=1)) in data set [1] of 0.99. The same measure, in the same setting: for “CAGTGACAACCAATGTTGACTTAAAACCTT (double strand) [FoxA BS chr4:61847631]” the value was 0.82. The sequence “CAGTGGAACCTCTGATGTTGACTTTCCCTTGATT (double strand) [FoxA BS chr15:82621996 a]” showed a binding signal (EMSA score (TTR=1)) in data set [1] of 0.38.

On to “CAGTCACCGTTGTTTGTTCTGTGACAAATA (double strand) [FoxA BS chr19:56926814]”, for which the binding signal (EMSA score (TTR=1)) in data set [1] turned out to be 0.68. The same measure, in the same setting: as for “CAGTAGCGCCTGCAGTTTACCTTGGCTCCG (double strand) [non-site chr9:102865800]”, the figure is 0.13; as for “CAGTGCGGCGCTGTGTTTACCTTCCGGGAG (double strand) [FoxA BS chr11:85168610]”, 1.08; as for “CAGTTGGCCCCAGTATTTACATTTCTAACA (double strand) [FoxA BS chr15:54962925]”, 0.92.

Turning to “CAGTGGATGCCTCTATTTGTTTAATCACAG (double strand) [FoxA BS chr9:122199103]”, in data set [1], the binding signal (EMSA score (TTR=1)) amounted to 1.1. For the sequence “CAGTCCTTGTGCTTATTTACATACCCCGCC (double strand) [FoxA BS chr19:12527263]”, in data set [1], the binding signal (EMSA score (TTR=1)) is 0.84.
